Molecular target: VFLIP_D614G spike with Foldon and purification tags enzymatically removed (SARS-CoV-2) (UniProt P0DTC2)
Assay: cryo-EM structure

## HLX70 Fab (Fab from HLX70, a humanized pan-coronavirus mAb)
  stoichiometry N: 3 Fab:spike
